According to the supplement of paper PMC9732359:
± gives the uncertainty stated by the source.

Test: protein stability index of a GFP-peptide fusion (yeast GPS) (PSI 1-4); higher = more stable; sorted into four equal gates, so the index is relative within each strain
How it was run: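 Tiled 17-residue yeast protein peptides were fused downstream of GFP in a plasmid that also expresses Cherry, and the pooled library was carried in yeast. Mid-log cultures in leucine-free medium were sorted into four equal gates by GFP/Cherry fluorescence ratio, and plasmids from each gate were PCR-amplified and Illumina-sequenced, with reads assigned to strains by barcodes. The protein stability index for each peptide was each gate's read frequency times its gate number, summed.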

ISHDDLQAVAVAVSTKK [FAS2]
protein stability index (doa10∆): 1.47 ± 0.29
protein stability index (pdr5∆): 1.48 ± 0.099
protein stability index (san1∆): 1.19 ± 0.12
protein stability index (ubr1∆): 1.32 ± 0.23

ATLQSNEPTQKDEEETE [DSN1]
protein stability index (doa10∆): 3.21 ± 0.16
protein stability index (pdr5∆): 3.18 ± 0.12
protein stability index (san1∆): 3.17 ± 0.1
protein stability index (ubr1∆): 2.79 ± 0.1

AGETLILDGLTVRLVNL [SRB2]
protein stability index (doa10∆): 2.43 ± 0.071
protein stability index (pdr5∆): 2.97 ± 0.082
protein stability index (san1∆): 2.46 ± 0.073
protein stability index (ubr1∆): 2.66 ± 0.052

RINTLPQVQLPVRALIV [ECM29]
protein stability index (pdr5∆): 1.93 ± 0.26

ATKEGVVLGVEKRATSP [PUP2]
protein stability index (doa10∆): 2.72 ± 0.14
protein stability index (pdr5∆): 3.14 ± 0.087
protein stability index (san1∆): 3.15 ± 0.083
protein stability index (ubr1∆): 3.19 ± 0.053

FDIIEESFKGLQPFWFR [ECM29]
protein stability index (doa10∆): 2.63 ± 0.11
protein stability index (pdr5∆): 2.58 ± 0.15
protein stability index (san1∆): 2.35 ± 0.17
protein stability index (ubr1∆): 2.21 ± 0.11

PNFEASFVHGVVGQLFQ [SMC2]
protein stability index (doa10∆): 1.61 ± 0.098
protein stability index (pdr5∆): 2.56 ± 0.11
protein stability index (san1∆): 2.58 ± 0.1
protein stability index (ubr1∆): 3.18 ± 0.12

IIFEIEKPLVVPVKLEE [RRP6]
protein stability index (doa10∆): 1.88 ± 0.079
protein stability index (pdr5∆): 2.28 ± 0.071
protein stability index (san1∆): 2.21 ± 0.12
protein stability index (ubr1∆): 2.14 ± 0.073

SLLERHIPRLIPKQLLD [YJL039C/NUP192]
protein stability index (doa10∆): 2.11 ± 0.096
protein stability index (pdr5∆): 1.38 ± 0.071
protein stability index (san1∆): 1.23 ± 0.095
protein stability index (ubr1∆): 1.45 ± 0.076

VRGGNIEIMGILMGFTL [RRI1]
protein stability index (doa10∆): 2.32 ± 0.074
protein stability index (pdr5∆): 2.56 ± 0.092
protein stability index (san1∆): 2.31 ± 0.16
protein stability index (ubr1∆): 2.9 ± 0.096

VISFGQPKLNPMASSSS [SWI1]
protein stability index (doa10∆): 2.15 ± 0.06
protein stability index (pdr5∆): 1.92 ± 0.074
protein stability index (san1∆): 2.61 ± 0.11
protein stability index (ubr1∆): 2.13 ± 0.056

ISQKLHDSILHSRILPK [RRP43]
protein stability index (doa10∆): 2.57 ± 0.046
protein stability index (pdr5∆): 2.58 ± 0.033
protein stability index (san1∆): 2.62 ± 0.037
protein stability index (ubr1∆): 2.8 ± 0.038

LLLKDQQTAKKLIPKLY [ECM29]
protein stability index (doa10∆): 2.1 ± 0.054
protein stability index (pdr5∆): 2.46 ± 0.061
protein stability index (san1∆): 2.32 ± 0.096
protein stability index (ubr1∆): 1.66 ± 0.053

LSPSDQFAPAFLNTPNN [SSN2]
protein stability index (doa10∆): 1.96 ± 0.069
protein stability index (pdr5∆): 2.23 ± 0.1
protein stability index (san1∆): 2.06 ± 0.13
protein stability index (ubr1∆): 2.44 ± 0.098

FGHLMHYGNEHIRRMVP [RPN1]
protein stability index (doa10∆): 1.71 ± 0.042
protein stability index (pdr5∆): 1.82 ± 0.039
protein stability index (san1∆): 1.6 ± 0.063
protein stability index (ubr1∆): 1.96 ± 0.034

EKNDQNNDDDDNSVEQG [MCD1]
protein stability index (pdr5∆): 3.15 ± 0.22

ISPKIWCAGAGTAADTE [PUP1]
protein stability index (doa10∆): 2.29 ± 0.1
protein stability index (pdr5∆): 2.36 ± 0.088
protein stability index (san1∆): 2.42 ± 0.12
protein stability index (ubr1∆): 2.24 ± 0.08

LRNNLNSLIEEINERSE [YCG1]
protein stability index (doa10∆): 3.13 ± 0.094
protein stability index (pdr5∆): 3.31 ± 0.095
protein stability index (san1∆): 2.96 ± 0.075
protein stability index (ubr1∆): 3.01 ± 0.073

SKKSTITVRYWLNGKMD [RGR1]
protein stability index (san1∆): 2.28 ± 0.2

RTWYESFCGFLLYYIPS [YJR042W/NUP85]
protein stability index (doa10∆): 1.88 ± 0.055
protein stability index (pdr5∆): 1.43 ± 0.047
protein stability index (san1∆): 1.58 ± 0.11
protein stability index (ubr1∆): 1.99 ± 0.057

MVDESDKKQQTIDEQSQ [RPN1]
protein stability index (doa10∆): 3.17 ± 0.16
protein stability index (pdr5∆): 3.25 ± 0.16
protein stability index (san1∆): 3.38 ± 0.11
protein stability index (ubr1∆): 3.43 ± 0.12

KDGEDIIFNYVPGPGTK [CSL4]
protein stability index (doa10∆): 2.56 ± 0.17
protein stability index (pdr5∆): 2.53 ± 0.11
protein stability index (san1∆): 2.23 ± 0.14
protein stability index (ubr1∆): 2.52 ± 0.29

KSLGVKSLGGGAALKDI [FAS2]
protein stability index (doa10∆): 3 ± 0.051
protein stability index (pdr5∆): 2.25 ± 0.049
protein stability index (san1∆): 2.41 ± 0.048
protein stability index (ubr1∆): 2.86 ± 0.057

AILLIINLTQTYGISVV [NUT1]
protein stability index (doa10∆): 1.53 ± 0.049
protein stability index (pdr5∆): 1.34 ± 0.043
protein stability index (san1∆): 1.7 ± 0.081
protein stability index (ubr1∆): 1.43 ± 0.04

SSNPNSSLHSPTSDEPV [SRB4]
protein stability index (doa10∆): 3.09 ± 0.13
protein stability index (pdr5∆): 2.99 ± 0.079
protein stability index (san1∆): 2.99 ± 0.063
protein stability index (ubr1∆): 3.15 ± 0.058

DQGNGWLYVYETPNQDA [RPN6]
protein stability index (doa10∆): 2.36 ± 0.061
protein stability index (pdr5∆): 2.01 ± 0.051
protein stability index (san1∆): 2.23 ± 0.067
protein stability index (ubr1∆): 2.38 ± 0.037

GSESDDSEGSIKQTSDE [ECM29]
protein stability index (doa10∆): 3.32 ± 0.1
protein stability index (pdr5∆): 3.57 ± 0.083
protein stability index (san1∆): 3.32 ± 0.068
protein stability index (ubr1∆): 3.42 ± 0.062

KSLDKKIAKRRQVYKPV [POP3]
protein stability index (doa10∆): 3.25 ± 0.21
protein stability index (pdr5∆): 3.09 ± 0.15
protein stability index (san1∆): 2.54 ± 0.23
protein stability index (ubr1∆): 3.5 ± 0.2

KSQNTALPSTHKVTQKK [SIR4]
protein stability index (doa10∆): 2.6 ± 0.061
protein stability index (pdr5∆): 2.9 ± 0.061
protein stability index (san1∆): 2.79 ± 0.071
protein stability index (ubr1∆): 3.01 ± 0.05

PNVSDKYYLEESNVNDS [NUT1]
protein stability index (doa10∆): 3.2 ± 0.26
protein stability index (pdr5∆): 2.85 ± 0.15
protein stability index (san1∆): 3.21 ± 0.096
protein stability index (ubr1∆): 3.17 ± 0.14

LKSLNDIETQLCSMLQE [MED11]
protein stability index (doa10∆): 2.54 ± 0.084
protein stability index (pdr5∆): 2.91 ± 0.079
protein stability index (san1∆): 2.73 ± 0.11
protein stability index (ubr1∆): 3 ± 0.059

WNRLTISVTDTEVERAK [COR1]
protein stability index (doa10∆): 3.19 ± 0.09
protein stability index (pdr5∆): 3.12 ± 0.076
protein stability index (san1∆): 3.08 ± 0.051
protein stability index (ubr1∆): 3.21 ± 0.085

LLQKMLNLLNYQELFIQ [YML103C/NUP188]
protein stability index (doa10∆): 2.4 ± 0.053
protein stability index (pdr5∆): 1.47 ± 0.038
protein stability index (san1∆): 1.38 ± 0.07
protein stability index (ubr1∆): 1.52 ± 0.036

CEIHPSMILGVAASIIP [RPB2]
protein stability index (doa10∆): 1.35 ± 0.11
protein stability index (pdr5∆): 1.42 ± 0.1
protein stability index (san1∆): 1.14 ± 0.15
protein stability index (ubr1∆): 1.35 ± 0.16

PLLSNYASKINRAEGPE [RGR1]
protein stability index (doa10∆): 2.88 ± 0.12
protein stability index (pdr5∆): 2.8 ± 0.1
protein stability index (san1∆): 2.87 ± 0.12
protein stability index (ubr1∆): 2.55 ± 0.082

AARVDIGQIIFSVRTKD [RPL10]
protein stability index (doa10∆): 1.74 ± 0.078
protein stability index (pdr5∆): 1.67 ± 0.081
protein stability index (san1∆): 2.78 ± 0.12
protein stability index (ubr1∆): 2.04 ± 0.057

DLTMGQVGERIKQTFKN [RPO21]
protein stability index (doa10∆): 3.31 ± 0.15
protein stability index (pdr5∆): 2.81 ± 0.19
protein stability index (san1∆): 3.25 ± 0.073
protein stability index (ubr1∆): 3.23 ± 0.11

VQDRGLSAVAQAESMKF [RPS3]
protein stability index (doa10∆): 3.16 ± 0.11
protein stability index (pdr5∆): 3.16 ± 0.11
protein stability index (san1∆): 2.73 ± 0.15
protein stability index (ubr1∆): 2.9 ± 0.075

DINQAKDFIENVNNRFD [BRN1]
protein stability index (doa10∆): 3.25 ± 0.12
protein stability index (pdr5∆): 3.23 ± 0.086
protein stability index (san1∆): 3.3 ± 0.067
protein stability index (ubr1∆): 3.08 ± 0.056

TPSQIGVLLRDAHGVTQ [RPS13]
protein stability index (doa10∆): 1.74 ± 0.083
protein stability index (pdr5∆): 1.81 ± 0.15
protein stability index (san1∆): 1.91 ± 0.13
protein stability index (ubr1∆): 2.05 ± 0.037

KPGIPRGNTKIHSMNEN [SIR3]
protein stability index (doa10∆): 3.23 ± 0.2
protein stability index (pdr5∆): 2.9 ± 0.22
protein stability index (san1∆): 3.32 ± 0.098
protein stability index (ubr1∆): 3.23 ± 0.12

SRPEYSCTFWSDKESNA [YJL039C/NUP192]
protein stability index (doa10∆): 2.08 ± 0.063
protein stability index (pdr5∆): 2.5 ± 0.061
protein stability index (san1∆): 2.51 ± 0.071
protein stability index (ubr1∆): 2.57 ± 0.072

FKKLTKDIFRYMQRTVE [RPB2]
protein stability index (doa10∆): 1.63 ± 0.045
protein stability index (pdr5∆): 1.4 ± 0.034
protein stability index (san1∆): 1.25 ± 0.087
protein stability index (ubr1∆): 1.36 ± 0.033

LQGDLTFTKKCLENARS [SIR4]
protein stability index (doa10∆): 3.23 ± 0.064
protein stability index (pdr5∆): 3.11 ± 0.059
protein stability index (san1∆): 3.05 ± 0.047
protein stability index (ubr1∆): 2.96 ± 0.041

ARDAPTKISTLAVKVHG [QCR2]
protein stability index (doa10∆): 1.4 ± 0.11
protein stability index (pdr5∆): 2.09 ± 0.14
protein stability index (san1∆): 1.38 ± 0.14
protein stability index (ubr1∆): 1.09 ± 0.045

KKECALLISYGVSIENE [SRB4]
protein stability index (doa10∆): 1.75 ± 0.085
protein stability index (pdr5∆): 1.9 ± 0.16
protein stability index (san1∆): 1.96 ± 0.24
protein stability index (ubr1∆): 2.03 ± 0.16

LQLTTNTEQGDSDELGG [SNM1]
protein stability index (doa10∆): 3.25 ± 0.16
protein stability index (pdr5∆): 3.55 ± 0.29
protein stability index (san1∆): 3.29 ± 0.11
protein stability index (ubr1∆): 3.09 ± 0.24

VNQDKANNASQITPTVP [SNF12]
protein stability index (doa10∆): 3.03 ± 0.083
protein stability index (pdr5∆): 3.19 ± 0.081
protein stability index (san1∆): 3.11 ± 0.063
protein stability index (ubr1∆): 3.18 ± 0.054

LGYARFILLDRLRQFNL [SMC4]
protein stability index (doa10∆): 2.36 ± 0.061
protein stability index (pdr5∆): 1.8 ± 0.065
protein stability index (san1∆): 1.75 ± 0.079
protein stability index (ubr1∆): 1.63 ± 0.061

IASDGSECIVSIKSKVV [RRP42]
protein stability index (doa10∆): 3.1 ± 0.081
protein stability index (pdr5∆): 3.12 ± 0.075
protein stability index (san1∆): 2.7 ± 0.2
protein stability index (ubr1∆): 3.12 ± 0.19

TSMTGDANLLEEGETSR [SWI3]
protein stability index (doa10∆): 3.2 ± 0.092
protein stability index (pdr5∆): 3.35 ± 0.097
protein stability index (san1∆): 3.2 ± 0.037
protein stability index (ubr1∆): 3.3 ± 0.041

YTDRDQDEVNKGPAIDE [NNF1]
protein stability index (doa10∆): 2.12 ± 0.092
protein stability index (pdr5∆): 2.01 ± 0.085
protein stability index (san1∆): 1.89 ± 0.13
protein stability index (ubr1∆): 2.13 ± 0.14

SVTEIPLKLSGEGPFTV [YMR129W/POM152]
protein stability index (doa10∆): 2.96 ± 0.072
protein stability index (pdr5∆): 3.23 ± 0.079
protein stability index (san1∆): 2.78 ± 0.078
protein stability index (ubr1∆): 2.81 ± 0.16

SKATGAPSANQGDEALS [RTT102]
protein stability index (doa10∆): 3.28 ± 0.12
protein stability index (pdr5∆): 3.32 ± 0.1
protein stability index (san1∆): 3.13 ± 0.1
protein stability index (ubr1∆): 3.14 ± 0.24
